One molecule from patent US7598032B2, “Thermostable DNA polymerases incorporating nucleoside triphosphates labeled with fluorescent dyes” (Roche Molecular Systems, priority 1997, dated 2009) can be followed below.

Assay [1] relates to primer annealed to an M13 template. Kind of assay: Extension rate assay. Type of assay: biochemical. Conditions: for extension rate, Base Pairs/Sec: 75° C. The procedure:
The extension rate of G46D F667Y Taq and G46D F667Y E681K Taq were determined using an extension rate assay. In this experiment, the enzymes were used to extend a primer annealed to an M13 template in the presence of [α-^33P]dCTP. The extension reactions were denatured and the products analyzed by denaturing agarose gel electrophoresis.
The assay was performed as previously described (Lawyer et al., 1989, J. Biol. Chem. 264:6427) including the following modifications. The assay mixture was composed so the final concentration was 50 mM Bicine pH 8.3, 25° C., 2.5 mM MgCl2, 1 mM β-mercaptoethanol, 200 μM each of dATP, dGTP and dTTP (Perkin-Elmer), 100 μM dCTP (Perkin-Elmer) containing [α-^33P]dCTP (New England Nuclear, Boston, Mass.). M13 mp18 (Perkin-Elmer) was annealed to primer DG48, (SEQ ID NO: 11), and the equivalent of 0.085 pmoles of the annealed template was added to the assay mixture for each reaction. Forty-five μl of the assay mixture with template DNA was added to each of fourteen 0.5 ml eppendorf tubes. Each tube was preincubated at 75° C. for at least 30 seconds before the start of the polymerase reaction.
Polymerization was initiated in six of the fourteen assay tubes with 5 μl of G46D F667Y Taq DNA polymerase (2.5 units) or G46D F667Y E681K Taq DNA polymerase (1.25 units). Both enzymes were prepared as in Example I and the concentration used represents a predetermined excess amount of enzyme for the amount of substrate in the assay. As a control for the level of background, the remaining negative control was initiated with enzyme dilution buffer rather than polymerase. All reaction tubes were immediately vortexed briefly and incubated at 75° C. Two of the six tubes containing G46D F667Y Taq DNA polymerase were incubated 3 minutes, two for 6 minutes and two for 10 minutes. Similarly, two of the tubes started with G46D F667Y E681K Taq DNA polymerase were incubated for 30 seconds, two for 1 minute and two for 2 minutes. The control tubes were incubated for 3 minutes. The reactions were stopped by addition of 10 μl 60 mM EDTA and stored at 0° C.
For each reaction, a 25 μl aliquot of the 60 μl reaction was diluted with 1 ml 2 mM EDTA, 50 μg/ml sheared salmon sperm DNA as a carrier. The DNA was precipitated with TCA using standard procedures and collected on GF/C filter discs (Whatman). The amount of incorporated [α-^33P]dCMP was determined for each sample.
The remaining 35 μl of each duplicated were combined and the 70 μl sample was ethanol precipitated, dried and resuspended in 50 mM NaOH, 1 mM EDTA. Aliquots were removed from these samples such that an equal number of α-^33P] counts were taken from each. These aliquots were loaded on an 0.9% alkaline agarose gel, electrophoresed, dried and autoradiographed as previously described (Maniatis et al., 1982, In Molecular Cloning: A Laboratory Manual, Cold Spring Harbor Laboratory, Cold Spring Harbor, N.Y.) Bacteriophage lambda DNA cut with restriction enzyme HindIII (BRL) and 5′ end-labeled with [^32P] was used as a molecular weight standard.
The length in base pairs of the extension product in each sample was determined by comparison of the migration distance of each sample with the distance migrated by the lambda DNA size standard. The number of base pairs in each product was divided by the number of seconds each extension reaction incubated to give the extension rate as shown below.

Assay [2] concerns M13 mp18 single-strand DNA template. Kind of assay: Cycle sequencing with fluorescein labeled ddNTPs (dye-terminator sequencing). Type of assay: biochemical. The procedure:
The fluorescein dye labeled dideoxy terminators are reagents from the Applied Biosystems PRISM Sequenase® Terminator Sequencing Kits (Perkin-Elmer, Norwalk, Conn.) and were optimized for use with Sequenase DNA polymerase and alpha-thio dNTPs. Cycle sequencing reactions were performed in a 20 μl volume containing 50 mM Tris-HCl (pH 8.8), 2.0 mM MgCl2, 100 μM each dATP, dCTP, and dTTP (Perkin-Elmer, Norwalk, Conn.), 500 μM dITP (Pharmacia Biotech, Piscataway, N.J.), 0.2 μM13 mp18 single-strand DNA template (Perkin-Elmer), 0.15 μM LacZ Forward Primer (Perkin-Elmer), 5 units of G46D F667Y E681K Taq DNA polymerase, 20 units of rTth Thermostable Pyrophosphatase (U.S. Ser. No. 08/528,384), 0.05 μM Sequenase A Dye Terminator, 0.80 μM Sequenase C Dye Terminator, 0.08 μM Sequenase G Dye Terminator, and 1.0 μM Sequenase T Dye Terminator. All four Sequenase Dye Terminators were purchased from Perkin-Elmer. Reactions were placed in a preheated (75° C.) Perkin-Elmer GeneAmp® PCR System 9600 thermal cycler and subjected to 25 cycles of 96° C. for 10 seconds, 50° C. for 5 seconds, and 60° C. for 4 minutes. Dye labeled fragments were purified with Centri-Sep™ columns (Princeton Separations, Adelphia, N.J.) following the manufacturer's instructions and dried in a vacuum centrifuge. Pellets were resuspended in 6 μl of deionized formamide:50 mg/mL Blue dextran (in 25 mM EDTA, pH 8.0) 5:1 (v/v), heated at 90° C. for 3 minutes, and directly loaded onto a pre-electrophoresed 4% polyacrylamide/6 M urea gel and electrophoresed and analyzed on a Perkin-Elmer ABI PRISM' 377 DNA Sequencer according to the manufacturer instructions (ABI PRISM 377 DNA Sequencer User's Manual).

B1: G46D F667Y E681K Taq: thermostable Taq DNA polymerase with G46D, F667Y and E681K mutations, encoded by plasmid pLK113 (protein, UniProt P19821 1-832, looked up, variant G46D F667Y E681K)
DNA polymerase I, thermostable: MRGMLPLFEPKGRVLLVDGHHLAYRTFHALKGLTTSRGEPVQAVYDFAKSLLKALKEDGDAVIVVFDAKAPSFRHEAYGGYKAGRAPTPEDFPRQLALIKELVDLLGLARLEVPGYEADDVLASLAKKAEKEGYEVRILTADKDLYQLLSDRIHVLHPEGYLITPAWLWEKYGLRPDQWADYRALTGDESDNLPGVKGIGEKTARKLLEEWGSLEALLKNLDRLKPAIREKILAHMDDLKLSWDLAKVRTDLPLEVDFAKRREPDRERLRAFLERLEFGSLLHEFGLLESPKALEEAPWPPPEGAFVGFVLSRKEPMWADLLALAAARGGRVHRAPEPYKALRDLKEARGLLAKDLSVLALREGLGLPPGDDPMLLAYLLDPSNTTPEGVARRYGGEWTEEAGERAALSERLFANLWGRLEGEERLLWLYREVERPLSAVLAHMEATGVRLDVAYLRALSLEVAEEIARLEAEVFRLAGHPFNLNSRDQLERVLFDELGLPAIGKTEKTGKRSTSAAVLEALREAHPIVEKILQYRELTKLKSTYIDPLPDLIHPRTGRLHTRFNQTATATGRLSSSDPNLQNIPVRTPLGQRIRRAFIAEEGWLLVALDYSQIELRVLAHLSGDENLIRVFQEGRDIHTETASWMFGVPREAVDPLMRRAAKTINYGVLYGMSAHRLSQKLAIPYEEAQAFIERYFQSFPKVRAWIEKTLEEGRRRGYVETLFGRRRYVPDLEARVKSVREAAERMAFNMPVQGTAADLMKLAMVKLFPRLEEMGARMLLQVHDELVLEAPKERAEAVARLAKEVMEGVYPLAVPLEVEVGIGEDWLSAKE
For B1, the “extension rate, Base Pairs/Sec” value in assay [1] (Time 30 sec.) is listed as 36.7 Base Pairs/Sec; in assay [1] (Time 1 min.), 41.7 Base Pairs/Sec; in assay [1] (Time 2 min) it was 52.9 Base Pairs/Sec. Besides, the “extension rate (in words)” value in assay [1] (relative to an enzyme with the F667Y mutation alone) is recorded as “significantly increased extension rate”. For the same molecule, the “accuracy of automated base-calling” value in assay [2] (for 450 bases, ABI PRISM 377 DNA Sequencer, 1 μM or less ddNTP) is given as “greater than 98.5%”. The same molecule had a base-calling errors in assay [2] (for bases +10 to +460 from primer) of 6 errors. The “sequencing ladder with fluorescein dye family-labeled ddNTPs” value in assay [2] (sequencing reaction with fluorescein dye family-labeled ddNTPs) is listed as “readable sequencing ladder”.
